These results are taken from doi:10.1101/2025.11.07.687288.

For experiment [1], the target named is E-cadherin V81D L175D, as the Dimerization Activated TurboID pair (Δ-DAT: ΔEcadN and ΔEcadC). Description: split reporter.
Experiment [2] has the same target. Kind of experiment: split reporter. This is another data set of the same source.

Where two headings read alike, the source gives them in different places.

Consider “E-cadherin V81D L175D, as the Dimerization Activated TurboID pair (Δ-DAT: ΔEcadN and ΔEcadC) (receptor)”, for which the biotinylation relative to WT-DAT, normalized for expression in experiment [1] was found to be 59%; in experiment [2], 38.7%.
